Measurements: patent US20220144961A1 (XYENCE THERAPEUTICS, published 2022)
Changes are numbered by the printed parent chain. One block for each binder: values may come before it.

Key:
human CD27 [1] = molecular target: T1, human CD27 (human, UniProt P26842 21-192, limits assumed); experiment: screen of individual clones, heat map of log (Binding MFI), human CD27 at 25 nM
T1 construct: The construct (soluble form, tags) is not described; also called TNFRSF7

human CD27 [2] = molecular target: T1, human CD27; experiment: mAb titration on human CD27, OD readout
mouse CD27 [3] = molecular target: T2, mouse CD27 (mouse, UniProt P41272 24-182, limits assumed); experiment: Kd table for the mAb titration on mouse CD27 (OD readout, Figure 4 B); method not given
T2 construct: The construct is not described; also called murine CD27
T2 sequence (looked up): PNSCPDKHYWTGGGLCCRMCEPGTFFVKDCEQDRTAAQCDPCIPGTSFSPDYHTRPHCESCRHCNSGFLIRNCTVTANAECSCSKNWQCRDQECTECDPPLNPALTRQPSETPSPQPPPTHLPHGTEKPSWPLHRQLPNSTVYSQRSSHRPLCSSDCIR

human CD27 [4] = molecular target: T1, human CD27; experiment: Kd table for the mAb titration on human CD27 (OD readout, Figure 4 A); method not given
mouse CD27 [5] = molecular target: T2, mouse CD27; experiment: screen of individual clones, heat map of log (Binding MFI), mouse CD27 at 25 nM

T1 sequence (P26842 21-192 limits assumed): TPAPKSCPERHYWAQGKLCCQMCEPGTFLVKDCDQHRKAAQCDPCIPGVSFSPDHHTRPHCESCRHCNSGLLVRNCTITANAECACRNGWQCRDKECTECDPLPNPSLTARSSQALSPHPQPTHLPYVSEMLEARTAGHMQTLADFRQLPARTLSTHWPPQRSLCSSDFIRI

binding result (human CD27 [1]): binds
B4: TP9 (antibody, V domains shown)
VH: QVQLVESGGGVVQPGRSLRLSCAASGFTFSSYAMHWVRQAPGKGLEWVAVISYDGSNKYYADSVKGRFTISRDNSKNTLYLQMNSLRAEDTAVYYCARAVPYVYYGMDVWGQGTLVTVSS
VL: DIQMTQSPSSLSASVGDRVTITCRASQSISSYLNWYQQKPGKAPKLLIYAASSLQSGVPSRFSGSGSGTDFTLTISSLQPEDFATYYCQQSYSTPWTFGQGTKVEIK
notes: Clone of the screen; also called TP09

binding result (human CD27 [1]): binds
B5: TP5 (antibody, V domains shown)
VH: QVQLVESGGGVVQPGRSLRLSCAASGFTFSSYAMHWVRQAPGKGLEWVAVISYDGSNKYYADSVKGRFTISRDNSKNTLYLQMNSLRAEDTAVYYCARVFYGYAPFDVWGQGTLVTVSS
VL: DIQMTQSPSTLSASVGDRVTITCRASQSISSWLAWYQQKPGKAPKLLIYDASSLESGVPSRFSGSGSGTEFTLTISSLQPDDFATYYCQQSYSTPYTFGQGTKLEIK
notes: Clone of the screen; also called TP05

binding result (human CD27 [1]): binds
B7: TP14 (antibody, V domains shown)
VH: QVQLVQSGAEVKKPGASVKVSCKASGYTFTSYYMHWVRQAPGQGLEWMGIINPSGGSTSYAQKFQGRVTMTRDTSTSTVYMELSSLRSEDTAVYYCARYDHAGGTPFDLWGQGTLVTVSS
VL: QSVLTQPPSVSAAPGQKVTISCSGSSSNIGNNYVSWYQQLPGTAPKLLIYGNSNRPSGVPDRFSGSKSGTSASLAITGLQAEDEADYYCQSYDSSLSGYVFGTGTKVTVL
notes: Clone of the screen

binding result (human CD27 [1]): binds
B8: TP1 (antibody, V domains shown)
VH: QVQLVESGGGVVQPGRSLRLSCAASGFTFSSYAMHWVRQAPGKGLEWVAVISYDGSNKYYADSVKGRFTISRDNSKNTLYLQMNSLRAEDTAVYYCARAGSSGYAYYGMDVWGQGTLVTVSS
VL: not shown
notes: Clone of the screen; also called TP01

binding result (human CD27 [1]): binds
B14: TP17 (antibody, V domains shown)
VH: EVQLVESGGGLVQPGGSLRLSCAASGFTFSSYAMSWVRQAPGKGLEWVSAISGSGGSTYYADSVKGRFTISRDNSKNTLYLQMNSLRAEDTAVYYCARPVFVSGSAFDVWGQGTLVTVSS
VL: QSVVTQPPSVSGAPGQRVTISCTGSSSNIGAGYDVHWYQQLPGTAPKLLIYGNSNRPSGVPDRFSGSKSGTSASLAITGLQAEDEADYYCQSYDSSLSGYVFGTGTKVTVL
notes: Clone of the screen

binding result (human CD27 [1]): binds
binding result (mouse CD27 [5]): binds
B15: TP22 (antibody, V domains shown)
VH: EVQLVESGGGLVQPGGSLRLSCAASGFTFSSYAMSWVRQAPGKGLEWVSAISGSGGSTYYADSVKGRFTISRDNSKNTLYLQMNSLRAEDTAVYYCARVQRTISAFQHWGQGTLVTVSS
VL: B14 VL
notes: Clone of the screen

binding result (human CD27 [1]): binds
B16: TP28 (antibody, V domains shown)
VH: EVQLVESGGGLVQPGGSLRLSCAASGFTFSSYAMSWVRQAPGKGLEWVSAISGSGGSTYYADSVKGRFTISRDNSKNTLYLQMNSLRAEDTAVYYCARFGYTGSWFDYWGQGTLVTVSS
VL: B14 VL with N53K
notes: Clone of the screen

The remaining lines, values behind:

B1: TP15 (antibody, V domains shown)
VH: QVQLVQSGAEVKKPGASVKVSCKASGYTFTSYGISWVRQAPGQGLEWMGWISAYNGNTNYAQKLQGRVTMTTDESTSTAYMELSSLRSEDTAVYYCARGGAGHYDYFDYWGQGTLVTVSS
VL: QSVLTQPPSVSAAPGQKVTISCSGSSSNIGNNYVSWYQQLPGTAPKLLIYDNNKRPSGIPDRFSGSNSGNTATLTISGTQAMDEADYYCQAWDSSTAWVFGGGTKLTVL
notes: Clone of the screen
binding result (human CD27 [1]): binds

B2: TP24 (antibody, V domains shown)
VH: B5 VH with V99P, F100V, Y101R, G102T, Y103I, A104S, P105A
VL: QSVVTQPPSVSGAPGQRVTISCTGSSSNIGAGYDVHWYQQLPGTAPKLLIYGNSNRPSGVPDRFSGSKSGTSASLAITGLQAEDEADYYCGTWDSSLSAGYVFGTGTKVTVL
notes: Clone of the screen
binding result (human CD27 [1]): binds

B3: TP6 (antibody, V domains shown)
VH: B4 VH with A99G, V100Y, P101Q, Y102G, V103G, Y105S, G106N, M107F, V109L
VL: B5 VL with E70D, D81E
notes: also called TP06
EC50 (read off the curve) (human CD27 [2]): ~300 pM
Kd (mouse CD27 [3]): 8000 pM
Kd (human CD27 [4]): 600 pM

B6: TP11 (antibody, V domains shown)
VH: QVQLVESGGGVVQPGRSLRLSCAASGFTFSSYAMHWVRQAPGKGLEWVAVISYDGSNKYYADSVKGRFTISRDNSKNTLYLQMNSLRAEDTAVYYCARGVSGSYARGFDVWGQGTLVTVSS
VL: B5 VL with D81E, Y96W, L104V
Kd (mouse CD27 [3]): 500 pM
Kd (human CD27 [4]): 200 pM

B9: TP21 (antibody, V domains shown)
VH: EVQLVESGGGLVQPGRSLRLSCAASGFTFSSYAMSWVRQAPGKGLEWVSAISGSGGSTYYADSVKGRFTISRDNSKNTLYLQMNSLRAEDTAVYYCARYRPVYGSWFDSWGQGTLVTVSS
VL: B14 VL
notes: Clone of the screen
binding result (human CD27 [1]): binds

B10: TP25 (antibody, V domains shown)
VH: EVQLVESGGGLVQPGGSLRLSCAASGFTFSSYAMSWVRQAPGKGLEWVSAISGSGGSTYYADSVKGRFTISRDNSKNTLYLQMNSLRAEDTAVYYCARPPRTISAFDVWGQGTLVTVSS
VL: B14 VL
EC50 (read off the curve) (human CD27 [2]): ~100 pM
Kd (human CD27 [4]): 100 pM

B11: TP23 (antibody, V domains shown)
VH: B1 VH with E74T, S84R, E89D
VL: B14 VL
Kd (mouse CD27 [3]): 40000 pM
Kd (human CD27 [4]): 5000 pM

B12: TP29 (antibody, V domains shown)
VH: EVQLVESGGGVVQPGRSLRLSCAASGFTFSNAWMSWVRQAPGKGLEWVSAISGSGGSTYYADSVKGRFTISRDNSKNTLYLQMNSLRAEDTAVYYCARRALSLSYFDYWGQGTLVTVSS
VL: B14 VL
Kd (mouse CD27 [3]): 700 pM
Kd (human CD27 [4]): 300 pM

B13: TP31 (antibody, V domains shown)
VH: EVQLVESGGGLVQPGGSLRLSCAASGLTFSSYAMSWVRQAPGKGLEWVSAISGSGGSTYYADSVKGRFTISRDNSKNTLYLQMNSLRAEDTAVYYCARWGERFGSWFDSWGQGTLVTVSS
VL: B14 VL
Kd (human CD27 [4]): 1400 pM

B17: TP10 (antibody, V domains shown)
VH: QVQLVESGGGVVQPGRSLRLSCAASGFTFSSYAMHWVRQAPGKGLEWVAVISYDGSNKYYADSVKGRFTISRDNSKNTLYLQMNSLRAEDTAVYYCARSGRATSYSYYGMDVWGQGTLVTVSS
VL: not shown
Kd (mouse CD27 [3]): 900 pM
Kd (human CD27 [4]): 400 pM
